# B1: TARP-2-9 (peptide)
# peptide: QMFPPSPL
# notes: The limits should be checked against the listing
# Tests used:
# [1] = target: T1, HLA-A2.1 molecules on TAP-deficient T2 cells (human); assay: T2 binding assay, flow cytometry with anti-HLA-A2.1
# T1 construct: MHC class I molecule on T2 cells; also called HLA-A2 molecules
# Description: (§1) T2-binding assay. […] After washing, cells were stained with FITC-labeled goat anti-mouse Ig (PharMingen, San Diego, Calif.) and the level of HLA-A2.1 expression was measured by flow cytometry. HLA-A2.1 expression was quantified as fluorescence index (FI) according to the formula: FI=(mean fluorescence intensity with peptide-mean fluorescence intensity without peptide)/mean fluorescence intensity without peptide.
# (§2) To determine HLA-A2.1 epitopes from the TARP, four different wild-type peptides were first predicted based on the anchor residues (FIG. 1B) and their binding affinities to HLA-A2.1 molecules were measured by the T2-binding assay.
# [2] = target: T1, HLA-A2.1 molecules on TAP-deficient T2 …; assay: T2 binding assay, flow cytometry; reference TARP-29-37
# Description: as §1, §2
# [3] = target: T1, HLA-A2.1 molecules on TAP-deficient T2 …; assay: T2 binding assay, flow cytometry
# Description: as §1
binder,measurement,setting,value
B1,binding result,[1],no binding
RLEHTFVFL [TARP-22-30],binding result,[1],no binding
FVFLRNFSL [TARP-27-35],fold higher binding affinity than TARP-29-37,[2],~10 fold
FVALRNFSL [TARP-27-35 with substitution with Ala at position 3],binding result,[1],no binding
FLFLRNFSL [TARP-27-35-2L],binding result,[3],binds
FVFLRNFSV [TARP-27-35-9V],binding result,[3],binds
FLRNFSLML (also called wild-type peptide) [TARP-29-37],binding result,[3],binds
FLRNFSLMV [TARP-29-37-9V],binding result,[3],binds
FLANFSLML [TARP-29-37-3A],binding result,[3],binds
